Literature values in PMC4329993.

Target: GLP-1 receptor (Homo sapiens) (UniProt P43220)
UniProt P43220, sequence (P43220 24-463): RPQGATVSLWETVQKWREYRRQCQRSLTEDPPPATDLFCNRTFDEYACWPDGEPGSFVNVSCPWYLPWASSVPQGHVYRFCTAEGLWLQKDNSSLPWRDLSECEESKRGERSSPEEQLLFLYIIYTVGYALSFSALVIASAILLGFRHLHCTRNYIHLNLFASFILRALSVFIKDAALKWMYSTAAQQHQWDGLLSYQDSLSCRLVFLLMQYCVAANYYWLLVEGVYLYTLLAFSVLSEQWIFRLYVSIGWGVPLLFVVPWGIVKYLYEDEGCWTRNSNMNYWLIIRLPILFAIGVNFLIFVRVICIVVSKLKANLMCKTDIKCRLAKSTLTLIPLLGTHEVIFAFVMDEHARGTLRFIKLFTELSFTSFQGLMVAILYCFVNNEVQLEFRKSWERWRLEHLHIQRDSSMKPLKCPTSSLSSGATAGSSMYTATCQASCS

GLP-1, sequence (P01275 98-127): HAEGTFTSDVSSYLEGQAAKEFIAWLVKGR

Kd: 0.3 nM
Substance: GLP-1 (from UniProt P01275)
